According to the supplement of paper PMC9732359:
± gives the uncertainty stated by the source.

Assay: protein stability index of a GFP-peptide fusion (yeast GPS) (PSI 1-4); higher = more stable; sorted into four equal gates, so the index is relative within each strain
Method in brief: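 Plasmids in a pooled yeast library fused tiled 17-residue yeast protein peptides downstream of GFP and also expressed Cherry. Mid-log cultures grown without leucine were sorted into four equal gates by GFP/Cherry fluorescence ratio. Each gate's plasmids were PCR-amplified and Illumina-sequenced, and reads were matched to strains by barcodes. The protein stability index is derived by multiplying each gate's read frequency by its gate number and summing the results.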

Row | Sequence | protein stability index (doa10∆) | protein stability index (pdr5∆) | protein stability index (san1∆) | protein stability index (ubr1∆)
1 | MENNEPAMAMEDLKNFI [SRB8] | 3.18 ± 0.074 | 3.29 ± 0.081 | 3.24 ± 0.043 | 3.08 ± 0.068
2 | YATKDGVAHLLNRFNFQ [QCR2] | 2.45 ± 0.088 | 2.67 ± 0.053 | 1.87 ± 0.29 | 2.6 ± 0.057
3 | KDLVEIKKEEGKIDEAA [RPN5] | – | – | – | 3.62 ± 0.22
4 | KSESDELQMRSFLKEGD [RRP4] | 3.18 ± 0.13 | 2.71 ± 0.23 | 3.09 ± 0.12 | 3.16 ± 0.096
5 | AHEIIKREEKAMTIYWD [CDC53] | 2.03 ± 0.087 | 2.18 ± 0.064 | – | 2.2 ± 0.05
6 | NNVTSNPSEFTPNMVNS [SSN2] | 2.93 ± 0.063 | 3.03 ± 0.053 | 2.66 ± 0.09 | 3.1 ± 0.05
7 | AELVQKYIGEGSRMVRE [RPT6] | 2.74 ± 0.088 | 2.69 ± 0.075 | 2.65 ± 0.075 | 2.33 ± 0.11
8 | HRSKKDQDQYLEIAKDF [IRR1] | 3.15 ± 0.14 | 3.21 ± 0.12 | 3.04 ± 0.13 | 3.6 ± 0.27
9 | KERIVRAFLIEEQKIVK [RPL34B] | – | – | – | 2.74 ± 0.12
10 | VIQIVTGIFMAMHYSSN [COB] | 1.32 ± 0.078 | 1.16 ± 0.069 | 1.33 ± 0.17 | 1.46 ± 0.088
11 | GSQIKFIVVPDLLKNAP [SMD3] | 2.05 ± 0.052 | 2.13 ± 0.047 | 1.8 ± 0.055 | 1.8 ± 0.038
12 | LLKSNDPLLSLYNFLHK [RGR1] | 2.31 ± 0.056 | 2.23 ± 0.053 | 2.54 ± 0.048 | 2.55 ± 0.041
13 | GLGYVFEFQYLTIGVKF [SRB5] | 1.15 ± 0.088 | 1.53 ± 0.1 | 1.08 ± 0.15 | 1.31 ± 0.087
14 | KDKLREFIPHSTEYMMQ [RPN6] | 3.46 ± 0.11 | 3.22 ± 0.11 | 2.83 ± 0.075 | 2.63 ± 0.087
15 | FITKHLPLLILENSSRS [NUT1] | 1.36 ± 0.098 | 1.41 ± 0.067 | 1.12 ± 0.2 | 1.14 ± 0.032
16 | FVTQFRHLRRTGKVSEF [RET1] | 3.15 ± 0.24 | 2.5 ± 0.17 | 3.07 ± 0.093 | 2.41 ± 0.075
17 | EILYYQIKTLPEQYSDI [AAR2] | 2.9 ± 0.081 | 3.14 ± 0.084 | 2.77 ± 0.067 | 2.91 ± 0.046
18 | VSKPSLLHETNDSFKGL [PRP8] | – | 2.74 ± 0.13 | – | 2.99 ± 0.097
19 | MVMREETIKSLEDPYKY [CSN9] | 1.62 ± 0.08 | 1.66 ± 0.078 | 1.25 ± 0.2 | 1.73 ± 0.054
20 | TTVITVFLEFSLNFIPI [YML103C/NUP188] | 1.42 ± 0.038 | 1.33 ± 0.032 | 1.83 ± 0.064 | 1.58 ± 0.023
21 | QKLHKVKKASGEIVSIN [RPL20A] | 2.98 ± 0.076 | 2.61 ± 0.057 | 3.07 ± 0.042 | 2.8 ± 0.056
22 | SIIKAKLPLLNESLIPL [YML103C/NUP188] | 1.68 ± 0.06 | 2.18 ± 0.067 | 1.84 ± 0.082 | 1.99 ± 0.05
23 | EEKEKEQSKEVGDVVGG [BRN1] | 3.29 ± 0.091 | 3.52 ± 0.1 | 3.29 ± 0.067 | 3.34 ± 0.075
24 | KELESIDVLLEQTTGGN [RPB4] | – | – | – | 3.22 ± 0.26
25 | FDKDLERDTFSDFTFPE [DIS3] | 2.11 ± 0.15 | 1.88 ± 0.13 | 1.24 ± 0.17 | 1.32 ± 0.15

Row | Sequence | protein stability index (doa10∆) | protein stability index (pdr5∆) | protein stability index (san1∆) | protein stability index (ubr1∆)
26 | TLEQKVNLENPIPIAVL [FAS1] | 1.35 ± 0.048 | 1.4 ± 0.041 | 1.57 ± 0.095 | 1.39 ± 0.028
27 | GCEANIHSLVKQRLDLA [YIL149C/MLP2] | 3.06 ± 0.12 | 3.19 ± 0.11 | 3.05 ± 0.062 | 3.19 ± 0.076
28 | EEIRSQIDHFKSMLSKP [SWI3] | 1.65 ± 0.045 | 2.32 ± 0.065 | 2.67 ± 0.053 | 2.35 ± 0.04
29 | GEDFMEVDYEDKDNPVD [SRB4] | 3.56 ± 0.12 | 2.96 ± 0.24 | 3.46 ± 0.15 | 3.32 ± 0.17
30 | MGKGKPRGLNSARKLRV [RPS23A] | 2.4 ± 0.089 | 3.05 ± 0.08 | 2.96 ± 0.094 | 2.79 ± 0.072
31 | LNDPSLKIQFILSTTLD [SIN4] | 1.11 ± 0.055 | 1.45 ± 0.074 | 1.32 ± 0.14 | 1.18 ± 0.042
32 | LKHYNGYDINYISKIGE [SWI1] | 2.81 ± 0.056 | 2.71 ± 0.049 | 2.07 ± 0.066 | 2.62 ± 0.053
33 | RFKMERAGVTHVLSRLS [RET1] | – | 1.55 ± 0.18 | 1.2 ± 0.27 | 1.3 ± 0.23
34 | WESLAKKQNLSSHQRVF [SWP82] | 2.77 ± 0.063 | 2.71 ± 0.071 | 2.83 ± 0.06 | 2.91 ± 0.053
35 | PQFDSTQPKSSSSMDMQ [SSN3] | 2.94 ± 0.069 | 3 ± 0.068 | 2.95 ± 0.05 | 3.02 ± 0.044
36 | SMENYHLLIKIIRQLSE [SRB8] | 1.71 ± 0.058 | 1.77 ± 0.064 | 2.31 ± 0.11 | 1.63 ± 0.046
37 | STIPTRENGKGGQIAHI [ROX3] | 3.01 ± 0.11 | 3.17 ± 0.092 | 2.98 ± 0.052 | 2.97 ± 0.19
38 | ELPTQLALEIIVRPAKG [RRP46] | 1.52 ± 0.041 | 1.57 ± 0.044 | 1.49 ± 0.079 | 1.84 ± 0.045
39 | PQKPVPLNVLQDQYKEG [SNF2] | 3.01 ± 0.07 | 3.33 ± 0.096 | 3.1 ± 0.086 | 2.94 ± 0.044
40 | FFYNISSIHWNNWFSLP [SIN4] | 2.09 ± 0.036 | 1.96 ± 0.038 | 2.03 ± 0.05 | 2.13 ± 0.036
41 | LSDYIPGPYPNEQAARA [CYT1] | 2.1 ± 0.054 | 2.54 ± 0.05 | 2.4 ± 0.063 | 2.39 ± 0.05
42 | TIQSDLNLSLHKLDLAK [SMC2] | 2.81 ± 0.049 | 2.79 ± 0.035 | 3.01 ± 0.038 | 2.828 ± 0.028
43 | IALGEDIGKEMSLRHFG [RPN1] | 3.2 ± 0.088 | 3.07 ± 0.11 | 2.55 ± 0.2 | 3.34 ± 0.14
44 | LGEFSITYTPVRHGRAG [RPS15] | 1.85 ± 0.15 | 1.85 ± 0.12 | 1.61 ± 0.15 | –
45 | ELLETVSLTKRKQEREI [YIL149C/MLP2] | 1.43 ± 0.095 | 1.61 ± 0.07 | 1.5 ± 0.19 | 1.12 ± 0.036
46 | TANALPLPAVFSAPIRP [RPL4A] | 1.79 ± 0.042 | 2.1 ± 0.042 | 1.87 ± 0.065 | 1.98 ± 0.04
47 | KLNVDQFISSRQFEVKQ [POP1] | 2.99 ± 0.053 | 3.08 ± 0.055 | 3.01 ± 0.041 | 2.97 ± 0.059
48 | ERPPLLPILPIQRLRLL [YOR098C/NUP1] | 1.34 ± 0.1 | 2.36 ± 0.12 | 1.95 ± 0.18 | 1.9 ± 0.11
49 | SVKPHVVEPEHMADAKI [SIR4] | 2.68 ± 0.14 | 2.92 ± 0.14 | 3.1 ± 0.1 | 3 ± 0.17
50 | FISELCSIEPIAAKLIN [YML103C/NUP188] | 1.41 ± 0.033 | 1.34 ± 0.044 | 1.44 ± 0.077 | 1.35 ± 0.045

Row | Sequence | protein stability index (doa10∆) | protein stability index (pdr5∆) | protein stability index (san1∆) | protein stability index (ubr1∆)
51 | IKSQYYSRISKLKQLLD [YIL149C/MLP2] | 1.2 ± 0.095 | 1.87 ± 0.11 | 1.64 ± 0.12 | 1.45 ± 0.068
52 | AYSNTNTNTENENRNTG [SNF11] | 3.1 ± 0.14 | 2.95 ± 0.065 | 2.95 ± 0.071 | 2.95 ± 0.072
53 | FSRHAQQQTSTFNSKPV [SIR4] | 2.38 ± 0.056 | 2.82 ± 0.058 | 2.07 ± 0.076 | 2.38 ± 0.047
54 | SLSFGSGSAGANPAGAS [YJL041W/NSP1] | 2.92 ± 0.13 | 2.89 ± 0.13 | 2.75 ± 0.18 | 3.1 ± 0.085
55 | KEKIKNNRQLPYLVANV [RPT5] | 2.78 ± 0.1 | 3.1 ± 0.095 | 3.11 ± 0.096 | 2.64 ± 0.081
56 | AEDLTIAAKTHILRISF [SIN4] | 2.36 ± 0.12 | 3.02 ± 0.09 | 2.85 ± 0.085 | –
57 | SNIITKSLVQYIELLPN [DIS3] | 2.64 ± 0.072 | 2.08 ± 0.065 | 2.22 ± 0.072 | 2.38 ± 0.05
58 | KAEVTQLSNGIVVATEH [COR1] | 2.58 ± 0.17 | 3.15 ± 0.11 | 3.18 ± 0.18 | 2.96 ± 0.11
59 | IIDHIPGHSLLLSIKLP [SNF5] | 1.96 ± 0.066 | 1.61 ± 0.045 | 1.53 ± 0.11 | 2.23 ± 0.04
60 | PGYVDIVKTSSGNEMPP [RPS19A] | 2.67 ± 0.19 | 2.86 ± 0.11 | 2.84 ± 0.11 | 3.11 ± 0.088
61 | EDNAGVIANPKGEMKGS [RPL23A] | 1.82 ± 0.18 | 1.92 ± 0.056 | 2.28 ± 0.13 | 1.85 ± 0.059
62 | LISNAIYGKKTMVIQDE [ECM29] | 1.58 ± 0.25 | 1.83 ± 0.27 | – | 1.4 ± 0.14
63 | HINKKSQLDLFLRTMKL [GRR1] | 1.94 ± 0.067 | 2.33 ± 0.076 | 1.21 ± 0.11 | 2.02 ± 0.1
64 | LQRPTATDEESVRLQRF [CSN12] | 2.75 ± 0.089 | 2.98 ± 0.12 | 2.97 ± 0.1 | 3.16 ± 0.1
65 | LGMGKAVEKTLALGCHF [POP7] | 1.98 ± 0.097 | 2.16 ± 0.08 | 2.6 ± 0.1 | 2.38 ± 0.088
66 | AIIRLHPSIYTQVFNIL [POP1] | 2.02 ± 0.051 | 1.22 ± 0.047 | 1.2 ± 0.09 | 1.22 ± 0.036
67 | KQTDTGITHFRAGMTHE [PRP8] | 2.36 ± 0.055 | 2.61 ± 0.047 | 3.08 ± 0.057 | 2.94 ± 0.037
68 | LSGIIQDIYYLAQTLKL [RRI2] | 1.54 ± 0.081 | 1.66 ± 0.14 | 1.14 ± 0.092 | 1.04 ± 0.093
69 | GSSSIIYYDSYIHLAYS [SSN2] | 2.56 ± 0.11 | 2.61 ± 0.12 | 2.7 ± 0.068 | 2.79 ± 0.28
70 | QQQLRNQIQRQQQQQFR [SNF5] | 1.43 ± 0.18 | – | 1.4 ± 0.21 | 1.55 ± 0.061
71 | AQYGIKALPIRRDDEVL [RPL26A] | 3.63 ± 0.18 | 3.32 ± 0.17 | 3.43 ± 0.061 | 3.28 ± 0.14
72 | IHLNELLTNDESAFENL [SNF12] | 2.73 ± 0.057 | 2.91 ± 0.052 | 2.88 ± 0.067 | 3.03 ± 0.053
73 | LVPPPRTIANQDHFHRL [RPR2] | 3.01 ± 0.086 | 3.15 ± 0.069 | 2.88 ± 0.051 | 2.93 ± 0.066
74 | LPLLILENSSRSPRVVT [NUT1] | 1.76 ± 0.054 | 2 ± 0.046 | 2.258 ± 0.015 | 1.94 ± 0.039
75 | LSQNESTRASTVPNLPT [ISW2] | 2.17 ± 0.056 | 2.5 ± 0.063 | 2.46 ± 0.045 | 2.6 ± 0.048
